Laboratory results: patent US20230407373A1 (priority 2020, published 2023)
“Also recorded” adds a separate entry of the source. Like-named read-outs stand apart in the source and are kept apart here.

Experiments:
HCoV-OC43 gRNA and sgRNA = type: binding; conditions: for target (unweighted spectral count, OC43 Probe II capture) / target (unweighted spectral count): tested against no-probe control; for target (unweighted spectral count, OC43 Probe II capture): FDR<10%; for target (unweighted spectral count): OC43 Probe II, infected cells; for target (unweighted spectral count, OC43 Probe II) / background (unweighted spectral count, no-probe control): type n_48_v, 48 hpi; for target (unweighted spectral count, OC43 Probe II): OC43 Probe II capture on infected cells; for background (unweighted spectral count, no-probe control): no-probe control on infected cells; for target (spectral count) / background (spectral count): type s_36_m, Probe II; for target (spectral count): HCoV-OC43-infected HCT-8 cells; for background (spectral count): uninfected-probe control
gRNA of HCoV-OC43 = type: binding; conditions: for target (spectral count) / background (spectral count): type g_36_m, 36 hpi, Probe I; for target (spectral count): HCoV-OC43-infected HCT-8 cells; for background (spectral count): uninfected-probe control; for target (spectral count, OC43 Probe I RNP capture) / background (spectral count, no-probe control): type n_48_v: 48 hours post-infection; for target (spectral count, OC43 Probe I RNP capture): infected cells, unweighted spectral count; for background (spectral count, no-probe control): no-probe control on infected cells
SARS-CoV-2 gRNA = type: binding; conditions: for target (unweighted spectral count of the protein in the RNP capture): LC-MS/MS, Probe I sample (first 199 lines of Table 2)
[1] = system: SARS-CoV-2 gRNA and sgRNAs; type: binding; conditions: for target (unweighted spectral count in RNP capture): Probe II capture, LC-MS/MS LFQ; for background (unweighted spectral count in control): no-probe control pull-down, used as background for Probe II
SARS-CoV-2 = type: cell-based; conditions: for change in viral RNA levels (gRNA, N sgRNA) after siRNA depletion: Calu-3 cells, 50 nM siRNA, RT-qPCR, relative to siNC

Molecule	target (unweighted spectral count, OC43 Probe II capture) (HCoV-OC43 gRNA and sgRNA; 36 hpi, type n_36_v)	target (unweighted spectral count) (HCoV-OC43 gRNA and sgRNA; 12 hpi (type n_12_v))	target (unweighted spectral count) (HCoV-OC43 gRNA and sgRNA; 24 hpi (type n_24_v))	target (unweighted spectral count, OC43 Probe II) (HCoV-OC43 gRNA and sgRNA)	background (unweighted spectral count, no-probe control) (HCoV-OC43 gRNA and sgRNA)	target (spectral count) (HCoV-OC43 gRNA and sgRNA; 36 hpi)	background (spectral count) (HCoV-OC43 gRNA and sgRNA; 36 hpi)	target (spectral count) (gRNA of HCoV-OC43)	background (spectral count) (gRNA of HCoV-OC43)	target (spectral count, OC43 Probe I RNP capture) (gRNA of HCoV-OC43)	background (spectral count, no-probe control) (gRNA of HCoV-OC43)	enrichment in SARS-CoV-2 Probe I RNP capture (SARS-CoV-2 gRNA)	target (unweighted spectral count of the protein in the RNP capture) (SARS-CoV-2 gRNA)	enrichment in SARS-CoV-2 Probe II RNP capture [1]	target (unweighted spectral count in RNP capture) ([1]; […])	background (unweighted spectral count in control) [1]	change in viral RNA levels (gRNA, N sgRNA) after siRNA depletion (SARS-CoV-2)	further results
FUBP3: host protein, UniProt Q96I24 (protein, UniProt Q96I24 2-572, looked up) Far upstream element-binding …: AELVQGQSAPVGMKAEGFVDALHRVRQIAAKIDSIPHLNNSTPLVDPSVYGYGVQKRPLDDGVGNQLGALVHQRTVITEEFKVPDKMVGFIIGRGGEQISRIQAESGCKIQIASESSGIPERPCVLTGTPESIEQAKRLLGQIVDRCRNGPGFHNDIDSNSTIQEILIPASKVGLVIGRGGETIKQLQERTGVKMVMIQDGPLPTGADKPLRITGDAFKVQQAREMVLEIIREKDQADFRGVRGDFNSRMGGGSIEVSVPRFAVGIVIGRNGEMIKKIQNDAGVRIQFKPDDGISPERAAQVMGPPDRCQHAAHIISELILTAQERDGFGGLAAARGRGRGRGDWSVGAPGGVQEITYTVPADKCGLVIGKGGENIKSINQQSGAHVELQRNPPPNSDPNLRRFTIRGVPQQIEVARQLIDEKVGGTNLGAPGAFGQSPFSQPPAPPHQNTFPPRSSGCFPNMAAKVNGNPHSTPVSGPPAFLTQGWGSTYQAWQQPTQQVPSQQSQPQSSQPNYSKAWEDYYKKQSHAASAAPQASSPPDYTMAWAEYYRQQVAFYGQTLGQAQAHSQEQ	42	11	27	71	3	42	6	49	9	47	3	enriched; also recorded: found in the SARS-CoV-2 experiments	94	enriched; also recorded: found in the SARS-CoV-2 experiments	173	1	increased the viral RNA levels	enrichment / detection in HCoV-OC43 Probe II RNP capture (HCoV-OC43 gRNA and sgRNA; infected HCT-8 cells): enriched; enrichment / detection in HCoV-OC43 Probe I RNP capture (gRNA of HCoV-OC43; infected HCT-8 cells): enriched
CSDE1: host protein, UniProt O75534 (protein, UniProt O75534 1-798, looked up) Cold shock domain-containing …: MSFDPNLLHNNGHNGYPNGTSAALRETGVIEKLLTSYGFIQCSERQARLFFHCSQYNGNLQDLKVGDDVEFEVSSDRRTGKPIAVKLVKIKQEILPEERMNGQVVCAVPHNLESKSPAAPGQSPTGSVCYERNGEVFYLTYTPEDVEGNVQLETGDKINFVIDNNKHTGAVSARNIMLLKKKQARCQGVVCAMKEAFGFIERGDVVKEIFFHYSEFKGDLETLQPGDDVEFTIKDRNGKEVATDVRLLPQGTVIFEDISIEHFEGTVTKVIPKVPSKNQNDPLPGRIKVDFVIPKELPFGDKDTKSKVTLLEGDHVRFNISTDRRDKLERATNIEVLSNTFQFTNEAREMGVIAAMRDGFGFIKCVDRDVRMFFHFSEILDGNQLHIADEVEFTVVPDMLSAQRNHAIRIKKLPKGTVSFHSHSDHRFLGTVEKEATFSNPKTTSPNKGKEKEAEDGIIAYDDCGVKLTIAFQAKDVEGSTSPQIGDKVEFSISDKQRPGQQVATCVRLLGRNSNSKRLLGYVATLKDNFGFIETANHDKEIFFHYSEFSGDVDSLELGDMVEYSLSKGKGNKVSAEKVNKTHSVNGITEEADPTIYSGKVIRPLRSVDPTQTEYQGMIEIVEEGDMKGEVYPFGIVGMANKGDCLQKGESVKFQLCVLGQNAQTMAYNITPLRRATVECVKDQFGFINYEVGDSKKLFFHVKEVQDGIELQAGDEVEFSVILNQRTGKCSACNVWRVCEGPKAVAAPRPDRLVNRLKNITLDDASAPRLMVLRQPRGPDNSMGFGAERKIRQAGVID			18	21	1	24	3			20	1	enriched	37	enriched	92	1		antiviral or proviral role of the host protein indicated by knockdown (SARS-CoV-2): proviral effects
HDLBP: host protein, UniProt Q00341 (protein, UniProt Q00341 2-1268, looked up) Vigilin: SSVAVLTQESFAEHRSGLVPQQIKVATLNSEEESDPPTYKDAFPPLPEKAACLESAQEPAGAWGNKIRPIKASVITQVFHVPLEERKYKDMNQFGEGEQAKICLEIMQRTGAHLELSLAKDQGLSIMVSGKLDAVMKARKDIVARLQTQASATVAIPKEHHRFVIGKNGEKLQDLELKTATKIQIPRPDDPSNQIKITGTKEGIEKARHEVLLISAEQDKRAVERLEVEKAFHPFIAGPYNRLVGEIMQETGTRINIPPPSVNRTEIVFTGEKEQLAQAVARIKKIYEEKKKKTTTIAVEVKKSQHKYVIGPKGNSLQEILERTGVSVEIPPSDSISETVILRGEPEKLGQALTEVYAKANSFTVSSVAAPSWLHRFIIGKKGQNLAKITQQMPKVHIEFTEGEDKITLEGPTEDVNVAQEQIEGMVKDLINRMDYVEINIDHKFHRHLIGKSGANINRIKDQYKVSVRIPPDSEKSNLIRIEGDPQGVQQAKRELLELASRMENERTKDLIIEQRFHRTIIGQKGERIREIRDKFPEVIINFPDPAQKSDIVQLRGPKNEVEKCTKYMQKMVADLVENSYSISVPIFKQFHKNIIGKGGANIKKIREESNTKIDLPAENSNSETIIITGKRANCEAARSRILSIQKDLANIAEVEVSIPAKLHNSLIGTKGRLIRSIMEECGGVHIHFPVEGSGSDTVVIRGPSSDVEKAKKQLLHLAEEKQTKSFTVDIRAKPEYHKFLIGKGGGKIRKVRDSTGARVIFPAAEDKDQDLITIIGKEDAVREAQKELEALIQNLDNVVEDSMLVDPKHHRHFVIRRGQVLREIAEEYGGVMVSFPRSGTQSDKVTLKGAKDCVEAAKKRIQEIIEDLEAQVTLECAIPQKFHRSVMGPKGSRIQQITRDFSVQIKFPDREENAVHSTEPVVQENGDEAGEGREAKDCDPGSPRRCDIIIISGRKEKCEAAKEALEALVPVTIEVEVPFDLHRYVIGQKGSGIRKMMDEFEVNIHVPAPELQSDIIAITGLAANLDRAKAGLLERVKELQAEQEDRALRSFKLSVTVDPKYHPKIIGRKGAVITQIRLEHDVNIQFPDKDDGNQPQDQITITGYEKNTEAARDAILRIVGELEQMVSEDVPLDHRVHARIIGARGKAIRKIMDEFKVDIRFPQSGAPDPNCVTVTGLPENVEEAIDHILNLEEEYLADVVDSEALQVYMKPPAHEEAKAPSRGFVVRDAPWTASSSEKAPDMSSSEEFPSFGAQVAPKTLPWGPKR		11	24	50	2	36	1	26	3	16	2		23				increased the viral RNA levels	
SF1: host protein, UniProt Q15637 (protein, UniProt Q15637 2-639, looked up) Splicing factor 1: ATGANATPLDFPSKKRKRSRWNQDTMEQKTVIPGMPTVIPPGLTREQERAYIVQLQIEDLTRKLRTGDLGIPPNPEDRSPSPEPIYNSEGKRLNTREFRTRKKLEEERHNLITEMVALNPDFKPPADYKPPATRVSDKVMIPQDEYPEINFVGLLIGPRGNTLKNIEKECNAKIMIRGKGSVKEGKVGRKDGQMLPGEDEPLHALVTANTMENVKKAVEQIRNILKQGIETPEDQNDLRKMQLRELARLNGTLREDDNRILRPWQSSETRSITNTTVCTKCGGAGHIASDCKFQRPGDPQSAQDKARMDKEYLSLMAELGEAPVPASVGSTSGPATTPLASAPRPAAPANNPPPPSLMSTTQSRPPWMNSGPSESRPYHGMHGGGPGGPGGGPHSFPHPLPSLTGGHGGHPMQHNPNGPPPPWMQPPPPPMNQGPHPPGHHGPPPMDQYLGSTPVGSGVYRLHQGKGMMPPPPMGMMPPPPPPPSGQPPPPPSGPLPPWQQQQQQPPPPPPPSSSMASSTPLPWQQNTTTTTTSAGTGSIPPWQQQQAAAAASPGAPQMQGNPTMVPLPPGVQPPLPPGAPPPPPPPPPGSAGMMYAPPPPPPPPMDPSNFVTMMGMGVAGMPPFGMPPAPPPPPPQN	8					8	1	12	2	12	1		17					target (unweighted spectral count, OC43 Probe II capture) (HCoV-OC43 gRNA and sgRNA; 24 hpi, type n_24_v): 4; target (unweighted spectral count of the protein in the RNP capture experiment) ([1]; […], LC-MS/MS label-free quantification, probe pool not given): 6; back-ground (unweighted spectral count of the protein in the control experiment) ([1]; protein background of the control (e.g. no-probe) experiment, […]): 1
